From US9120851B2, “Human antibodies to human angiopoietin-like protein 4” (Regeneron Pharmaceuticals, Inc., priority 2009, dated 2015)

Key:
[1] = test system: obese rhesus monkeys (Macaca mulatta); assay: Phase I pilot PK/PD study in obese rhesus monkeys; assay type: in vivo, rhesus monkey (Macaca mulatta)
Protocol: Phase I: In a pilot non-GLP pharmacokinetics/pharmacodynamic (PK/PD) study, H4H268P2 and H4H284P were administered as a single bolus intravenous (IV) injection, to obese rhesus monkeys (Macaca mulatta). Rhesus monkeys were selected because this species is closely related, both phylogenically and physiologically, to humans and is a species commonly used for nonclinical toxicity evaluations. Obese monkeys that had been on a high fat diet for greater than 6 months were selected because they typically display moderately elevated TG levels (i.e., mean >100 mg/dL; hyper-TG). Eight confirmed healthy, male monkeys were acclimated and assigned to the study for baseline assessment for 7 days prior to dosing. All animals received a vehicle (10 mM histidine, pH 6) IV infusion on Day −5, after which four of them received H4H268P2 and another four H4H284P at 10 mg/kg IV on day 0.
Serum samples were collected from the baseline period through day 35 post-dosing and assessed for serum lipid levels by ADVIA® 1800 Chemistry System (Siemens). The average baseline for each animal was determined based on the samples taken on Days −7, −5 and 0. […] Thus the data analysis was done with 3 animals in each group. Percent (%) changes of serum TG levels from the baseline were determined for each animal and averaged for each Ab group.

[2] = Pharmacokinetic clearance in wild-type and hANGPTL4(+/+) mice, sandwich ELISA; assay type: in vivo, mouse; conditions: 1 mg/kg s.c.
Protocol: Pharmacokinetic clearance rates of anti-hANGPTL4 antibodies H4H268P2 and H4H284P were determined in wild-type mice and in transgenic mice expressing human ANGPTL4 [hANGPTL4(+/+) mice]. The strain background for both wild-type and transgenic mice was C57BL6 (75%) and 129Sv (25%). Separate cohorts consisting of 5 mice each of either wild-type or hANGPTL4(+/+) mice received subcutaneously (s.c.) 1 mg/kg of H4H268P2, H4H284P, or an isotype-matched (hIgG4) control with irrelevant specificity. Blood samples were collected at 0 hour, 6 hours, 1 day, 2 days, 3 days, 4 days, 7 days, 10 days, and 15 days, 22 days, and 30 days after the injection. Serum levels of human antibodies were determined by a sandwich ELISA. Briefly, a goat polyclonal anti-human IgG (Fc-specific) capture antibody (Jackson ImmunoResearch, PA) was coated in 96-well plates at a concentration of 1 μg/mL and incubated overnight at 4° C. After the plates were blocked with BSA, serum samples in a six-point serial dilution and reference standards of the respective antibody in a twelve-point serial dilution were added to the plate and incubated for one hour at room temperature. After washing with a suitable washing buffer, captured human antibodies were detected using the same goat polyclonal anti-human IgG (Fc-specific) antibody conjugated with horse radish peroxidase (HRP) (Jackson ImmunoResearch, PA) and developed by standard colorimetric response using tetramethylbenzidine (TMB) substrate, measuring absorbance at 450 nm in a plate reader. Concentrations of human antibodies in serum were determined using the reference standard curve generated for the same sample plate.

[3] = test system: humanized ANGPTL4 mice; assay: Serum TG, H4H268P2 and fenofibrate alone or in combination; assay type: in vivo, mouse; conditions: day 7; H4H268P2 10 mg/kg s.c. day 0; fenofibrate 0.05% (w/w) in chow
Protocol: The effects of the anti-ANGPTL4 antibody H4H268P2 and TG-reducing drug fenofibrate, each alone or in combination, on serum TG levels were evaluated in humanized ANGPTL4 mice. The mice were pre-bled 7 days before the experiment after 4 hours of fasting and put into 4 groups of six mice each. Groups 2 and 4 were administered with H4H268P2 at 10 mg/kg by subcutaneous injection on day 0 and groups 1 (control group) and 2 were placed on regular chow diet. Groups 3 and 4 received chow diet supplemented with 0.05% (w/w) of fenofibrate (the dosage level was determined experimentally in a pilot study). Serum was collected from a terminal bleed on day 7 after H4H268P2 and/or fenofibrate administration (after 4 hours of fasting) and analyzed by ADVIA® 1800 Chemistry System (Siemens).

B1: H4H268P2: IgG4 version of H1H268P with a single amino acid substitution in framework region 1, HCVR/LCVR SEQ ID NOs 487/44 (antibody, V domains shown)
VH: QVQLQQSGAGLLKPSETLSLTCTVYGGSFSIHHWTWIRHPPGKGLEWIGEINHRGSTNYNPSLKSRVTISIDTSKNQFSLKLSAVTAADTAVYYCARGLRFLDWLSSYFDYWGQGTLVTVSS
VL: DIQMTQSPSSLSASVGDRVTITCRASQGISDYLAWYQQKPGKVPNLLIYAASALQSGVPSRFSGSGSGTDFTLTISSLQPEDVATYYCQNYNTAPLTFGGGTKVEIK
modifications: IgG4 constant region
With B1 the “additional lipids, such as LDL-C and HDL-C, in words” value ([1]; 10 mg/kg IV) was “Moderate effects”, the “total-C, in words” value ([1]; 10 mg/kg IV) was “unchanged” and the “injection site reactions or other adverse effects” value ([1]; 10 mg/kg IV, any time point after infusion) was “No injection site reactions or other adverse effects were observed”. For the same molecule, the “maximal reduction of serum TG from baseline” value ([1]; day 4 post-dosing, 10 mg/kg IV, three mildly hyper-TG animals) was 57%, the “fasting TG's or any other lipid parameters, in words” value ([1]; single obese animal with low TG levels, 10 mg/kg IV) was “did not yield any significant effect” and the “mean serum TG levels” value ([1]; until approximately Day 25, 10 mg/kg IV, three mildly hyper-TG animals) was at most 100 mg/dL. The Cmax ([2]; Wild-type mice) was 18400 ng/mL, the Cmax ([2]; hANGPTL4(+/+) mice) was 13300 ng/mL and the AUC ([2]; hANGPTL4(+/+) mice, over the 30-day period) was 37000 ng·h/mL. For the same molecule, the “TG levels reduced (mean) compared to control group on chow diet” value [3] was about 40%.
